The results in this text go back to publication PMC8677719.

This series relates to GST-Co-NF-kB RHD-only (Capsaspora owczarzaki). Briefly: PBM. The conditions noted are these: ~300 nM protein; EMSA: 10 mM HEPES pH 7.8, 50 mM KCl, 1 mM DTT, 1 mM EDTA, 4% glycerol, 40 ug/ml poly-dI-dC, 2X BSA, 50 ug 293T extract, 30 C 30 min; PBM: 6 mM HEPES pH 7.8 ….
In turn, “CCGATTAACATCAAGGAATTCCCTGATGTTAATCGG (double strand) [PBM probe AGGAATTCCC]” registered a binding signal of 4.22 PBM z-score.
Then “CCGATTAACATCACGGAATTCCCTGATGTTAATCGG (double strand) [PBM probe CGGAATTCCC]”, with 3.4 PBM z-score.
In the case of “CCGATTAACATCAGGAATTCCCATGATGTTAATCGG (double strand) [PBM probe GGAATTCCCA]” it was 4.61 PBM z-score; in that of “CCGATTAACATCAGGAATTCCCCTGATGTTAATCGG (double strand) [PBM probe GGAATTCCCC]”, 7.64 PBM z-score.
Take “CCGATTAACATCAGGGAATTCCCTGATGTTAATCGG (double strand) [PBM probe GGGAATTCCC]”: the binding signal came out at 7.25 PBM z-score.
